Measured values from paper PMC7132299 (Proceedings of the National Academy of Sciences of the …, 2020).
Like-named read-outs stand apart in the source and are kept apart here. Blank lines part the entries; values can stand above or below the molecule they belong to.

Experiments:
[1] = test system: wild-type pollen tubes; assay: Pollen tube growth assay after peptide addition; format: cell-based, Arabidopsis thaliana; conditions: peptide at 50 and 100 nM
[2] = target: LRX11 (insect-cell protein, limits not stated for the experiment) (Arabidopsis thaliana); assay: SEC-MALS
[3] = target: LRX8 (insect-cell protein, limits not stated for the experiment) (Arabidopsis thaliana); assay: SEC-MALS
[4] = target: LLG2 ectodomain (residues 24 to 135) (Arabidopsis thaliana) (UniProt Q6NLF4); assay: ITC
[5] = target: LLG3 ectodomain (residues 24 to 137) (Arabidopsis thaliana) (UniProt Q9M0I0); assay: ITC
[6] = target: LRX8_(49–400) (Arabidopsis thaliana); assay: ITC
[7] = target: biotinylated LRX8 (49 to 400) fused to a noncleavable Avi-tag (Arabidopsis thaliana); assay: grating-coupled interferometry
[8] = target: LLG3 ectodomain (residues 24 to 137) (Arabidopsis thaliana) (UniProt Q9M0I0); assay: ITC; remark: listed apart in the source
[9] = target: LRX8_(49–400) (Arabidopsis thaliana); assay: ITC; remark: listed apart in the source
[10] = target: LRX8_(C157A.Y87A.A133F) (Arabidopsis thaliana); assay: ITC
[11] = target: LRX8_(49–400) (Arabidopsis thaliana); assay: ITC; remark: listed apart in the source
[12] = target: the molecule itself; assay: SEC-MALS

LLG3 ectodomain (residues 24 to 137) (Arabidopsis thaliana), sequence (Q9M0I0 24-137): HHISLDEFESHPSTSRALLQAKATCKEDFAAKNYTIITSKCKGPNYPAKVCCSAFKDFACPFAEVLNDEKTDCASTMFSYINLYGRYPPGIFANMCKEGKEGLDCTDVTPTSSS
LLG2 ectodomain (residues 24 to 135) (Arabidopsis thaliana), sequence (Q6NLF4 24-135): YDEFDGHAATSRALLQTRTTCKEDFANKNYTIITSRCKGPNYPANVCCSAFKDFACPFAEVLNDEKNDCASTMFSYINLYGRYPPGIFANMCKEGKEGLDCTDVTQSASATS

Molecule: PTYNSCRRKCKRDRGYAARRYKRYRYVNADIKRNHSGYPCRICSRLYGRN [RALF4scrambled]
effect on pollen tube growth, in words [1]: no effect

stoichiometry N [2]: 2
Molecule: LRX11 (insect-cell protein, limits not stated for the experiment) (domain or fragment)

stoichiometry N [2]: 1
stoichiometry N [3]: 1
Kd [4]: 500 nM
Kd [5]: 1500 nM
Kd [6]: 100 nM
kon [7]: 400000 M⁻¹ s⁻¹
Kd [8]: 11000 nM
Kd [9]: 3.5 nM
Kd [10]: 2.5 nM
Molecule: RALF4_(folded) (RALF4 residues 58 to 110, isolated from insect cells) (peptide)

fold reduction of affinity (against RALF4 (folded)) [11]: 10 fold
Molecule: RRYIGYDALKKNNVPCSRRGRSYYDAKKRRRNNPYRRGCSAITHAYRYAR [RALF4_(C86A.C105A)]

Kd [11]: 1400 nM
Molecule: RRYIGYDALKKNNVPCSRRGRSAADCKKRRRNNPYRRGCSAITHCYRYAR [RALF4_(Y83A.Y84A)]

Kd [11]: 60 nM
Molecule: RRYIGYDALKKNNVPCSRRGRSYYDCKKRRRNNPYRRGCSAITHCYRYAR [RALF4_(synthetic)]

fold reduction of affinity (against RALF4 (folded)) [11]: 10 fold
Molecule: RRYIGYDALKKNNVPASRRGRSYYDAKKRRRNNPYRRGASAITHAYRYAR [RALF4_(C76A.C86A.C99A.C105A)]

B1: LRX8 (insect-cell protein, limits not stated for the experiment) (domain or fragment)
chain: ENGDLPDDIEYEVDLDLKFANNRLKRAYIALQAWKKAFYSDPFNTAANWVGPDVCSYKGVFCAPALDDPSVLVVAGIDLNHADIAGYLPPELGLLTDVALFHVNSNRFCGVIPKSLSKLTLMYEFDVSNNRFVGPFPTVALSWPSLKFLDIRYNDFEGKLPPEIFDKDLDAIFLNNNRFESTIPETIGKSTASVVTFAHNKFSGCIPKTIGQMKNLNEIVFIGNNLSGCLPNEIGSLNNVTVFDASSNGFVGSLPSTLSGLANVEQMDFSYNKFTGFVTDNICKLPKLSNFTFSYNFFNGEAQSCVPGSSQEKQFDDTSNCLQNRPNQKSAKECLPVVSRPVDCSKDKCAGG
modifications: N-glycosylated
stoichiometry N [12]: 2
